Results from publication PMC9714371, “Haemophilus influenzae Protein D antibody suppression in a multi‐component vaccine formulation” (FEBS Open Bio, 2022).
Where “and” joins values, the source holds several entries; their conditions need not be identical. Identical values can stand only once.

B1: His‐tagged Protein D (non‐lipidated, N‐terminal signal sequence removed) (natural protein)
chain: CSSHSSNMANTQMKSDKIIIAHRGASGYLPEHTLESKALAFAQHSDYLEQDLAMTKDGRLVVIHDHFLDGLTDVAKKFPYRHRKDGRYYVIDFTLKEIQSLEMTENFETKDGKQAQVYPNRFPLWKSHFRIHTFEDEIEFIQGLEKSTGKKVGIYPEIKAPWFHHQNGKDIATETLKVLKKYGYDKKTDMVYLQTFDFNELKRIKTELLPQMGMDLKLVQLIAYTDWKETQEKDPKGYWVNYNYDWMFKPGAMAEVVKYADGVGPGWYMLVNKEESKPDNIVYTPLVKELAQYNVEVHPYTVRKDALPEFFTDVNQMYDALLNKSGATGVFTDFPDTGVEFLKGIK
notes: Gene bought from GenScript, in pET21a; also called PD; His‐tagged PD; source: E. coli BL‐21*, IPTG induced; not shown: His6, N-terminal, kept
B2: His‐tagged outer membrane protein 26 (OMP26) (natural protein)
chain: EEKIAFINAGYIFQHHPDRQAVADKLDAEFKPVAEKLAASKKEVDDKIAAARKKVEAKVAALEKDAPRLRQADIQKRQQEINKLGAAEDAELQKLMQEQDKKVQEFQAQNEKRQAEERGKLLDSIQTATNNLAKAKGYTYVLDANSIVFAVEGKDITEEVLKSIPASEKAQEKK
notes: OMP26, 26-kDa outer membrane protein of Haemophilus influenzae, homolog of E. coli Skp; Gene bought from GenScript; Predominantly trimers by native MS and SEC, with hexamers in low abundance; also called His‐tagged OMP26; source: E. coli BL‐21*, IPTG induced; not shown: His6, N-terminal, kept

Biological target: the molecule itself
Experiment: native MS; nano-electrospray native MS with ion mobility (Waters Synapt G2); His-tagged proteins in 200 mM ammonium acetate pH 6.8, 5 μM; PD alone, OMP26 alone, 1:1 mixture

Row | Protein | stoichiometry N
1 | B1 | 2 and 4
2 | B2 | 3 and 6
